# Laboratory results from patent publication US20130184442A1.
# Key:
# Experiment in all cases: SPR (Biacore 2000), antibody immobilized on CM5 chip, Langmuir 1:1 model
# [1] = target: anti FITC-BSA mouse IgG2a (monoclonal, BioInvent International AB)
# polyclonal rabbit IgG = target: polyclonal rabbit IgG
# [2] = target: anti FITC-BSA human IgG1 (monoclonal, BioInvent International AB)
substance,measurement,setting,value
Zwt (recombinantly produced parental Z domain) (designed binder),Kd,[1],550 nM
same,Kd,polyclonal rabbit IgG,60 nM
same,Kd,[2],20 nM
